Results reported in US20240360248A1 (NANOMAB TECHNOLOGY, published 2024).
Numbering of substitutions follows the chain as printed.

T1: human PTK7-Fc protein antigen (human, UniProt Q13308 31-704)
T1 construct: extracellular domain; also called human PTK7 extracellular segment protein; not shown: Fc from the pFUSE-IgG recombinant plasmid
T1 sequence (looked up): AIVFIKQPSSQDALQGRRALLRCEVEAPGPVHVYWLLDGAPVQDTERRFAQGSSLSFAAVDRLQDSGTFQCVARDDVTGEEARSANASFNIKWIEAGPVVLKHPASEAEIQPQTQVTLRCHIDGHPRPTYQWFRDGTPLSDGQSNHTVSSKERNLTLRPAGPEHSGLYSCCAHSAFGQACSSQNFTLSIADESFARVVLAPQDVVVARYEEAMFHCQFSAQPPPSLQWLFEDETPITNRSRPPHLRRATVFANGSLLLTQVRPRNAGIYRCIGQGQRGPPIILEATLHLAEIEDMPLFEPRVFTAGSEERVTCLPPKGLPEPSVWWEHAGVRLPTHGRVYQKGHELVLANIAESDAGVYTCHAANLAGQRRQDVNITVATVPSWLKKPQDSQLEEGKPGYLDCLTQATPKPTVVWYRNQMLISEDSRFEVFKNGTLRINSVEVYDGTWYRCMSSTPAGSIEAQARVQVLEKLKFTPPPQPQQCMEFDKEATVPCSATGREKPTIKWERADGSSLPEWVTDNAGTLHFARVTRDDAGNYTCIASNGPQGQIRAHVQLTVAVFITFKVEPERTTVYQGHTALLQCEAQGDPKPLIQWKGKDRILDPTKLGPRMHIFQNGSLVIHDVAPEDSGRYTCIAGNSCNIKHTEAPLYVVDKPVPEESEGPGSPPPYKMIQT

T2: PTK7-His antigen protein from rhesus monkey species (rhesus monkey, UniProt F7G3Z5 39-712)
T2 construct: also called Rhesus monkey PTK7; not shown: His tag
T2 sequence: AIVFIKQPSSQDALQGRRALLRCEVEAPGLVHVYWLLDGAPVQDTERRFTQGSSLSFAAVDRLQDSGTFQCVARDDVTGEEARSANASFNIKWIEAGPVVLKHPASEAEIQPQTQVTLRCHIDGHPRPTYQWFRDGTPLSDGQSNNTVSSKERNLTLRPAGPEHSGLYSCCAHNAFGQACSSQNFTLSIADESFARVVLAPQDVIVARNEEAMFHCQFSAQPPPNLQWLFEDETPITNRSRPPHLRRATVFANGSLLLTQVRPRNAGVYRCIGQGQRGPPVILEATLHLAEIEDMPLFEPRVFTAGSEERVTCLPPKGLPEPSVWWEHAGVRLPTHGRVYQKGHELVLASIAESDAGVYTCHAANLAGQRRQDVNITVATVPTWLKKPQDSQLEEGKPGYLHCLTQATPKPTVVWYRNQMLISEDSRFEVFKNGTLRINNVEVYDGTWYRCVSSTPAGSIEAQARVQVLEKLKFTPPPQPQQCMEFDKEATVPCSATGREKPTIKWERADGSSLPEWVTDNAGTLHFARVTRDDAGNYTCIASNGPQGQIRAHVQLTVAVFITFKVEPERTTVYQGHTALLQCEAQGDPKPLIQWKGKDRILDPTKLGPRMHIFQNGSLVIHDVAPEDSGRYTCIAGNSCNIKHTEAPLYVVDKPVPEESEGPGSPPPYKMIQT

T3: PTK7-Fc antigen protein from mouse species (mouse, UniProt Q8BKG3 23-696, limits assumed)
T3 construct: also called Mouse PTK7; not shown: Fc
T3 sequence (looked up): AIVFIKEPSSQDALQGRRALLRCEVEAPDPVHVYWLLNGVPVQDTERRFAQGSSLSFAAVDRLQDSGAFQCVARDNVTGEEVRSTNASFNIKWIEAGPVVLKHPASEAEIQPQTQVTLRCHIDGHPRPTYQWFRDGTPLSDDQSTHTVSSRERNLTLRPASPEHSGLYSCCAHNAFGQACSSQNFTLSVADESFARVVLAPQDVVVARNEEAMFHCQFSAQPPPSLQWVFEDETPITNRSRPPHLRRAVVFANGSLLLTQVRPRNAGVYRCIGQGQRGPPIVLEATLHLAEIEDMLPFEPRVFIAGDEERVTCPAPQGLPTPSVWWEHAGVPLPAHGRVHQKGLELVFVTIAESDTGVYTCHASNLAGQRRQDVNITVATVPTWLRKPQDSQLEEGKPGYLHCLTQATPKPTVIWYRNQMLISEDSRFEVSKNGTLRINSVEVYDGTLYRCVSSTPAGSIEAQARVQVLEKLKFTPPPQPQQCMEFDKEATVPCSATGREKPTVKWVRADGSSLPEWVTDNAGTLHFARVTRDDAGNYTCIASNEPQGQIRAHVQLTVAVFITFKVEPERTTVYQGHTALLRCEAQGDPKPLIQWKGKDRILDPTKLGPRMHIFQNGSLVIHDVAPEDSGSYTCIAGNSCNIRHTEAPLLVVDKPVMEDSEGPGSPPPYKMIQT

B1: MY2132-4-55 (VHH)
VHH: QVQLQESGGGSVQAGGSLRLSCAASGYIWSRYCMGWFRQAPGKAREGVARFNSDGNTRYVDSVKGRFTISRDNAKNTLYLQMNNLQPEDTARYYCAADPRFDCGYDAVFNPTHFPYWGRGTQVTVSS
notes: Camel VHH expressed in E. coli WK6 and purified on a nickel column; also called MY2132-4-55 VHH; anti-PTK7 single domain antibody
B2: MY2132-4-79 (VHH)
VHH: B1 VHH with R119Q
notes: Camel VHH expressed in E. coli WK6 and purified on a nickel column; also called MY2132-4-79 VHH; anti-PTK7 single domain antibody
B3: MY2132-5-51 (VHH)
VHH: QVQLQESGGGLVQPGGSLTLACAASGFAFSSYAMRWVRQAPGKGLEGVSSISAGGDETYYADFAKGRFTISRDNAKNTLYLQLNSLKTEDTAMYYCAKGDRNSPRYSSWPITPVGQGTQVTVSS
notes: Camel VHH expressed in E. coli WK6 and purified on a nickel column; also called MY2132-5-51 VHH; anti-PTK7 single domain antibody
B4: MY2132-4-22 (VHH)
VHH: QVQLQESGGGSVQAGGSLRLSCTASGFTFDDYDMVWYRQAPGNEYEWLSTVSRGGNLYYADSVKGRFTISRDNAKNTVYLNMSRVKPEDTAVYYCAADLRSVPSTYRARTCRGRYCRDYWGQGTQVTVSS
notes: Camel VHH expressed in E. coli WK6 and purified on a nickel column; also called MY2132-4-22 VHH; anti-PTK7 single domain antibody

Tests used:
[1] = target: T1, human PTK7-Fc protein antigen; experiment: SPR (Biacore 8K), human PTK7-Fc amine-coupled on CM-5 chip, VHH as analyte
Procedure: The fixed phase human PTK7-Fc antigen proteins were fixed on the surface of CM-5 sensing chip using carboxyl amino reaction. The anti-PTK7 single domain antibodies were diluted with HBS buffer to different concentrations, and the anti-PTK7 single domain antibodies were added at a flow rate of 30 μl/min, binding for 90 seconds, dissociating for 600 seconds, and the binding process between the anti-PTK7 single domain antibody and the antigen was observed. After rinsing with 10 mM glycine solution for chip regeneration, the next anti-PTK7 single domain antibody assay was proceeded.

[2] = target: T1, human PTK7-Fc protein antigen; experiment: ELISA, antigen coated on plate, VHH in gradient dilution, anti-His/anti-HA-HRP; Kd calculated from absorbance at 450 nm
Procedure: (§1) The ELISA plates were coated with PTK7-Fc antigen proteins from human, or mouse species, or PTK7-His antigen protein from rhesus monkey species, overnight at 4° C. The plates were washed for 4 times with PBS-T the next day, added with 1% BSA, and blocked at room temperature for 2 hours. The plates were washed for 4 times with PBS-T, added with the anti-PTK7 single domain antibodies diluted in gradient, and kept at 37° C. for 1 hour. The plates were washed for 4 times with PBS-T, added with mouse anti-His-HRP antibody or mouse anti-HA-HRP antibody, and kept at 37° C. for 1 hour. The plates were washed for 4 times with PBS-T, added with TMB soluble substrate, and kept at room temperature for 10 minutes. The absorption value was read at a wavelength of 450 nm and the Kd value of each single domain antibody was calculated based on the absorption value.
(§2) The anti-PTK7 single domain antibodies of the present invention can bind to human, mouse or rhesus monkey PTK7.

[3] = target: T2, PTK7-His antigen protein from rhesus …; experiment: as above
Procedure: as §1, §2

[4] = target: T3, PTK7-Fc antigen protein from mouse …; experiment: as above
Procedure: as §1, §2

Binder | Kd [1] [nM] | koff [1] [s⁻¹] | kon [1] [M⁻¹ s⁻¹] | EC50 [2] [nM] | EC50 [3] [nM] | EC50 [4] [nM]
B1 | 0.18 | 0.000314 | 1.76e+06 | 0.49 | – | –
B2 | 0.22 | 0.000358 | 1.64e+06 | 0.59 | – | –
B3 | 3.45 | 0.00166 | 482000 | 0.61 | 1.03 | –
B4 | 2.13 | 0.0322 | 1.51e+07 | 0.33 | 0.3 | 12.7
